Test results as given in article PMC8615460.
Each block holds one binder with its values, some of them ahead of it. Ends that are not written are not given here.

Columns and labels:
[1] = target: San1_(1–303) (lysine residues changed to arginines) (Saccharomyces cerevisiae) (UniProt P22470)
[2] = target: San1_(1–303) (lysine residues changed to arginines) (Saccharomyces cerevisiae) (UniProt P22470); remark: listed apart in the source
[3] = target: full-length San1 (lysine residues changed to arginines) (Saccharomyces cerevisiae) (UniProt P22470)

limited proteolysis with chymotrypsin: stability of San1(1-303) with peptide substrate against without substrate [1]: 30 fold
limited proteolysis: fraction of radiolabeled San1(1-303) intact with chymotrypsin after 30 min, with excess peptide substrate [1]: 50%
Binder: Ac-CGSRRGSYNASSGEQMLSRTGFFLVLIVGQPLHNPVK [San1 peptide, unlabeled]

multi-turnover ubiquitylation: fraction of peptide substrate ubiquitylated, same incubation period and 18:1 substrate to ligase ratio [2]: 15%
multi-turnover ubiquitylation: fraction of peptide substrate ubiquitylated, 5 to 15 min, substrate to San1 ratios 6:1 to 18:1 [3]: 50%
B1: San1 peptide, radiolabeled (peptide)
peptide: Ac-CGSRRGSYNASSGEQMLSRTGFFLVLIVGQPLHNPVK
modifications: also: 32P phosphate added by cAMP-dependent protein kinase, residue not given here
